The values that follow come from publication PMC11250029.

In the experiment the target is lavanducyanin halogenase (LvcH) (Streptomyces sp. CNZ-289). As to the kind of experiment: SEC.

Take “lavanducyanin halogenase (LvcH) (enzyme)”: the stoichiometry N came out at 2.
